# Reference: patent US20230250158A1
# Target: SARS-CoV-2 Spike protein on VSV pseudotyped virus particles (Wuhan-1 isolate Spike sequence) (SARS-CoV-2) (UniProt P0DTC2)
# Experiment: cell-based or functional assay
row,Substance,IC50 in pseudovirus assays [µg/mL]
1,REGN10987 (antibody),0.45
2,REGN10933 (antibody),0.67
